Source: article PMC8273347

How the values were obtained:
[1] = biological target: 30S initiation complex (30S subunit, IF3_(488), IF2, mRNA, GTP, fMet-tRNA^fMet) (UniProt P0A707); experiment: FRET or BRET; stopped-flow chase as a1 (0.05 µM complex, 0.5 µM unlabelled IF1, TAKM7 buffer), with 100 µM Oxytetracycline (Otc)
[2] = biological target: 30S–IF3_(488) complex (30S ribosomal subunit with bound Alexa-488-labelled IF3) (UniProt P0A707); experiment: as above
[3] = biological target: 30S pre-initiation complex (30S subunit, IF3_(488), IF2, mRNA, GTP) (UniProt P0A707); experiment: as above
[4] = biological target: 30S initiation complex (30S subunit, IF3_(488), IF2, mRNA, GTP, fMet-tRNA^fMet) (UniProt P0A707); experiment: as above; remark: listed apart in the source
[5] = biological target: 30S–IF3_(488) complex (30S ribosomal subunit with bound Alexa-488-labelled IF3) (UniProt P0A707); experiment: FRET or BRET; stopped-flow chase as a1 (0.05 µM complex, 0.5 µM unlabelled IF1, TAKM7 buffer), with 100 µM Tigecycline (Tig)
[6] = biological target: 30S pre-initiation complex (30S subunit, IF3_(488), IF2, mRNA, GTP) (UniProt P0A707); experiment: as above
[7] = biological target: 30S initiation complex (30S subunit, IF3_(488), IF2, mRNA, GTP, fMet-tRNA^fMet) (UniProt P0A707); experiment: as above
[8] = biological target: 30S–IF3_(488) complex (30S ribosomal subunit with bound Alexa-488-labelled IF3) (UniProt P0A707); experiment: FRET or BRET; stopped-flow chase as a1 (0.05 µM complex, 0.5 µM unlabelled IF1, TAKM7 buffer), with 100 µM Demeclocycline (Dem)
[9] = biological target: 30S pre-initiation complex (30S subunit, IF3_(488), IF2, mRNA, GTP) (UniProt P0A707); experiment: as above
[10] = biological target: 30S initiation complex (30S subunit, IF3_(488), IF2, mRNA, GTP, fMet-tRNA^fMet) (UniProt P0A707); experiment: as above
[11] = biological target: 30S–IF3_(488) complex (30S ribosomal subunit with bound Alexa-488-labelled IF3) (UniProt P0A707); experiment: FRET or BRET; stopped-flow chase: 0.05 µM 30S complex with IF3_(488) (donor) and IF1_(540Q) (acceptor) mixed with 10-fold excess (0.5 µM) unlabelled IF1, donor fluorescence in time, single exponential fit; TAKM7 buffer (25 mM Tris-HCl pH 7.4, 70 mM NH4Ac, 30 mM KCl, 7 mM MgCl2); no tetracycline
[12] = biological target: 30S pre-initiation complex (30S subunit, IF3_(488), IF2, mRNA, GTP) (UniProt P0A707); experiment: as above
[13] = biological target: 30S initiation complex (30S subunit, IF3_(488), IF2, mRNA, GTP, fMet-tRNA^fMet) (UniProt P0A707); experiment: as above

- koff [1]: 0.3 s⁻¹
- koff [2]: 0.26 s⁻¹
- koff [3]: 0.02 s⁻¹
- koff [4]: 0.03 s⁻¹
- koff [5]: 0.021 s⁻¹
- koff [6]: 0.015 s⁻¹
- koff [7]: 0.015 s⁻¹
- koff [8]: 0.2 s⁻¹
- koff [9]: 0.02 s⁻¹
- koff [10]: 0.012 s⁻¹
- koff [11]: 0.3 s⁻¹
- koff [12]: 0.03 s⁻¹
- koff [13]: 0.02 s⁻¹
Substance: IF1 D4C labelled with Atto-540Q (natural protein)
